For the assay, the target named is Biotinylated C4b (UniProt P0C0L4). Nature of the assay: SPR, biotinylated C4b on streptavidin chip, 1:1 steady-state affinity model.

The text below walks through data of patent publication EP4559472A1.

Chain of mini-C4BP (P08603 other isoform, or with tags, fused parts or gaps): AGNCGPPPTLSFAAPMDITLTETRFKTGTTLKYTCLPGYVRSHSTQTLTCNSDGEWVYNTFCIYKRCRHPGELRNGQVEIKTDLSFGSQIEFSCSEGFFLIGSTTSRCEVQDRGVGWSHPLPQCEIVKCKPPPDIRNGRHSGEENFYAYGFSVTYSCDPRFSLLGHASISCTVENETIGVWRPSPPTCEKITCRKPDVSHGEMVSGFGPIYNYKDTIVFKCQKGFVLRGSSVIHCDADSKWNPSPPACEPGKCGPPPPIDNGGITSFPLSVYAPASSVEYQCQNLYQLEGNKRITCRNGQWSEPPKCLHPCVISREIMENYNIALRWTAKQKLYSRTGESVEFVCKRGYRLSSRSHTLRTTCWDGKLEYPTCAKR

For “mini-C4BP (from UniProt P08603 1107-1231)”, the Kd was 600 nM. This lies in the sub-micromolar range.
